According to US11655308B2, “HM-3 fusion protein and application thereof” (TASLY BIOPHARMACEUTICALS CO., LTD., priority 2017, dated 2023):

Columns and labels:
[1] = tested on: transgenic blood vessel fluorescent zebrafish; assay: In vivo anti-angiogenesis in zebrafish (SIVs area); design: area of SIVs: unit not given here; settings: 500 ng/tail, 24 h
[2] = tested on: mice splenic lymphocyte proliferation stimulated by ConA; type: cell-based
Experimental: Experimental method: mice orbit was by bloodletting to death, and immediately immersed in 75% ethanol for 5-10 min, and then the spleen was removed on a clean bench and placed in PBS. The spleen was placed on a sterile cell strainer (200 mesh) and ground with a syringe nozzle; during grinding process, PBS was added continuously; the slurry was collected and centrifuged (1000 rpm for 5 min), then cells were washed 3 times with Tris-ammonium chloride solution, and washed again with a medium, and then re-suspended in the medium. Finally, trypan blue living cell staining was performed on the cells, and the survival rate was more than 95%. The concentration of viable cells was adjusted to 2×10^6/mL. […] was added to each well of a 96-well plate, meanwhile, ConA (concanavalin to simulate splenocyte proliferation) and drugs were added to each well. Six duplicates were set in each group.
The 96-well plate was incubated for 48 h in a 5% CO2 incubator at 37° C. 5 mg/mL of MTT was added to the 96-well plate, 20 μL for each well, and then it was incubated continuously for 4 h in the incubator. The culture medium in the 96-well plate was discarded and 100 μL DMSO was added to each well and mixed gently. Absorbance was measured by a microplate reader at the wavelength of 570 nm and reference wavelength of 630 nm.
Proliferation inhibition rate (PI) was calculated according to formula:
[formula] wherein, Atest is the absorbance of dosing group, and Acontrol is the absorbance of negative control. Test results were expressed as mean±SD, and statistical T test was performed. *P<0.05 indicates significant difference, **P<0.01 indicates extremely significant difference. Based upon the results, the efficacy of the fusion protein against rheumatoid arthritis was screened.
In the P4 control group, TSL-4 fusion protein served as a control agent.

human macrophage U937 = assay: TNF-α production by LPS-induced human macrophage U937 (ELISA); type: cell-based; settings: 9 μM; LPS 1 μg/mL, 48 h; negative group 77.6±19.6
Experimental: Experimental method: Human macrophage U937 was cultured in RPMI-1640 medium containing 10% fetal bovine serum and double antibodies in a constant temperature incubator at 37° C. under the condition of 5% CO2, and the medium was replaced every 2 days. U937 cells in the logarithmic phase were collected, resuspended and adjusted to the concentration of 5×10^5/mL. 100 μL of cells was added to each well of a 96-well plate overnight and induced with LPS (1 μg/mL) in the following day, where n=3. At the same time, the cells were treated with agents, and respectively divided into a positive control group adalimumab, an HM-3 polypeptide group, an mPEG-SC-HM-3 polypeptide group, an HM-3 fusion protein (TSL-1, TSL-2, TSL-3, TSL-4) group, and the specific dosing scheme was shown in Table 5.
48 h after the agents worked, culture medium was collected and centrifuged, and supernatant was taken to measure the content of TNF-α therein by ELISA. Test results were expressed as mean±SD, and statistical T test was performed. *P<0.05 indicates significant difference, **P<0.01 indicates extremely significant difference. Based upon the results, the efficacy of the HM-3 fusion protein against rheumatoid arthritis was screened.

[3] = tested on: transgenic blood vessel fluorescent zebrafish; assay: In vivo anti-angiogenesis in zebrafish (SIVs area); design: area of SIVs: unit not given here; settings: for inhibition rate of angiogenesis / area of SIVs: 24 h; for area of SIVs: normal control group 53193
Experimental: Experimental method: transgenic blood vessel fluorescent zebrafish was randomly selected and put into a six-well plate with 30 fish per well, and intravenously injected HM-3 polypeptide, TSL-1 fusion protein, TSL-2 fusion protein, TSL-3 fusion protein and TSL-4 fusion protein respectively in accordance with the dosage of 20 ng/tail and 66 ng/tail; the dosage was […] in Avastin positive control and the injection volume was 20 nL/tail; the zebrafish injected 20 nL/tail of buffer solution served as a solvent control group, and the zebrafish without any treatment served as a normal control group. 10 pieces of zebrafish were randomly selected from each group after processed for 24 h to observe the intestinal vessels of the transgenic zebrafish by a fluorescence microscope, as well as to take and maintain images. Image analysis was performed by Nikon MS-Elements D 3.10 to calculate the area (S) of SIVs (subintestinal vessel, SIV). The calculation formula of angiogenesis inhibition rate was as follows: Angiogenesis inhibition rate (%)=(1−S(Test sample group)/S(Normal control group))×100%
Statistical analysis was performed by variance analysis and Dunnett's T-test and the results were expressed as Mean±SD, where p<0.05 indicates a significant difference.

Avastin: positive control in the zebrafish angiogenesis test
inhibition rate of angiogenesis [1]: 29% | area of SIVs ([1]; normal control group 53193): 37853

B1: IgG2-Fc-(GGGGS)3-HM-3 (protein)
chain: VECPPCPAPPVAGPSVFLFPPKPKDTLMISRTPEVTCVVVDVSHEDPEVQFNWYVDGVEVHNAKTKPREEQFNSTFRVVSVLTVVHQDWLNGKEYKCKVSNKGLPAPIEKTISKTKGQPREPQVYTLPPSREEMTKNQVSLTCLVKGFYPSDISVEWESNGQPENNYKTTPPMLDSDGSFFLYSKLTVDKSRWQQGNVFSCSVMHEALHNHYTQKSLSLSPGKGGGGSGGGGSGGGGSIVRRADRAAVPGGGGRGD
optimal (best) inhibition rate of splenic lymphocyte proliferation ([2]; ConA 5 μg/mL, 48 h, MTT, best of the tested concentrations): 61.4% | inhibition rate compared with the positive control group ([2]; positive group Dexamethasone 50 μmol/L): higher than that of the positive control group | TNF-α content in cell supernatant (human macrophage U937): 38.6 ± 12.9 pg/mL | inhibiting effect on angiogenesis ([3]; 20 ng/tail): significant inhibitory effect | inhibition rate of angiogenesis ([3]; 20 ng/tail iv): 23% | area of SIVs ([3]; 20 ng/tail iv): 40705 | inhibition rate of angiogenesis ([3]; 66 ng/tail iv): 27% | area of SIVs ([3]; 66 ng/tail iv): 38660
